Reference: article PMC13079258, “Impact of Ser81 phosphorylation on alanine: glyoxylate aminotransferase associated with Primary hyperoxaluria type I” (Molecular Biomedicine, 2026)

T1: AGT (alanine:glyoxylate aminotransferase 1), AGT WT (Homo sapiens, UniProt P21549)
T1 construct: gene AGXT; apo-form prepared with L-alanine; dimer
T1 sequence (P21549 1-392): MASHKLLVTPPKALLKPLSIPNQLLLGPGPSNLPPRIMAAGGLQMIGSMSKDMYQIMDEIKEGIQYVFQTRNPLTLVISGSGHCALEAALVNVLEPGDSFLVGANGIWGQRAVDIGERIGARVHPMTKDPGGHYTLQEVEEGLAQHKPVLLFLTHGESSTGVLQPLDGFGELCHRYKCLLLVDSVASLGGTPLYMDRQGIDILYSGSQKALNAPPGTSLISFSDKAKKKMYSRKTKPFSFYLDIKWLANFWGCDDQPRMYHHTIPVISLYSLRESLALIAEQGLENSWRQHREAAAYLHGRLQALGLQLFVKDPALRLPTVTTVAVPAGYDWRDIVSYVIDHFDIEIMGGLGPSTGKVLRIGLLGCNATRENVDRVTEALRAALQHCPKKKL


Target: the molecule itself
Assay: dynamic light scattering; 10 µM AGT as purified, 25 °C, 20 mM HEPES (sodium salt), 200 mM NaCl, pH 7.4; hydrodynamic radius assuming spherical particles (Stokes-Einstein)
Conditions: not given

| Molecule | stoichiometry N |
| --- | --- |
| Alanine:glyoxylate aminotransferase (AGT) WT (enzyme, human, UniProt P21549 1-392, looked up, also called wild-type; major allele) MASHKLLVTPPKALLKPLSIPNQLLLGPGPSNLPPRIMAAGGLQMIGSMSKDMYQIMDEIKEGIQYVFQTRNPLTLVISGSGHCALEAALVNVLEPGDSFLVGANGIWGQRAVDIGERIGARVHPMTKDPGGHYTLQEVEEGLAQHKPVLLFLTHGESSTGVLQPLDGFGELCHRYKCLLLVDSVASLGGTPLYMDRQGIDILYSGSQKALNAPPGTSLISFSDKAKKKMYSRKTKPFSFYLDIKWLANFWGCDDQPRMYHHTIPVISLYSLRESLALIAEQGLENSWRQHREAAAYLHGRLQALGLQLFVKDPALRLPTVTTVAVPAGYDWRDIVSYVIDHFDIEIMGGLGPSTGKVLRIGLLGCNATRENVDRVTEALRAALQHCPKKKL | 2 |
| AGT LM-p.I244T p.S81D (enzyme, human, UniProt P21549 1-392, looked up, Alanine:glyoxylate aminotransferase (AGT), human, LM-p.I244T background with the phosphomimetic S81D; site-directed mutant of the pCOLDII construct of m4; also called set D81) MASHKLLVTPLKALLKPLSIPNQLLLGPGPSNLPPRIMAAGGLQMIGSMSKDMYQIMDEIKEGIQYVFQTRNPLTLVISGDGHCALEAALVNVLEPGDSFLVGANGIWGQRAVDIGERIGARVHPMTKDPGGHYTLQEVEEGLAQHKPVLLFLTHGESSTGVLQPLDGFGELCHRYKCLLLVDSVASLGGTPLYMDRQGIDILYSGSQKALNAPPGTSLISFSDKAKKKMYSRKTKPFSFYLDTKWLANFWGCDDQPRMYHHTIPVISLYSLRESLALIAEQGLENSWRQHREAAAYLHGRLQALGLQLFVKDPALRLPTVTTVAVPAGYDWRDIVSYVMDHFDIEIMGGLGPSTGKVLRIGLLGCNATRENVDRVTEALRAALQHCPKKKL | 2 |
| AGT LM (minor allele, p.P11L and p.I340M) (enzyme, human, UniProt P21549 1-392, looked up, Alanine:glyoxylate aminotransferase (AGT), human, common polymorphic minor allele (LM); also called set S81) MASHKLLVTPLKALLKPLSIPNQLLLGPGPSNLPPRIMAAGGLQMIGSMSKDMYQIMDEIKEGIQYVFQTRNPLTLVISGSGHCALEAALVNVLEPGDSFLVGANGIWGQRAVDIGERIGARVHPMTKDPGGHYTLQEVEEGLAQHKPVLLFLTHGESSTGVLQPLDGFGELCHRYKCLLLVDSVASLGGTPLYMDRQGIDILYSGSQKALNAPPGTSLISFSDKAKKKMYSRKTKPFSFYLDIKWLANFWGCDDQPRMYHHTIPVISLYSLRESLALIAEQGLENSWRQHREAAAYLHGRLQALGLQLFVKDPALRLPTVTTVAVPAGYDWRDIVSYVMDHFDIEIMGGLGPSTGKVLRIGLLGCNATRENVDRVTEALRAALQHCPKKKL | 2 |
| AGT LM-p.I244T (enzyme, human, UniProt P21549 1-392, looked up, Alanine:glyoxylate aminotransferase (AGT), human, minor allele (LM) with the PH1-associated variant p.I244T; also called set S81) MASHKLLVTPLKALLKPLSIPNQLLLGPGPSNLPPRIMAAGGLQMIGSMSKDMYQIMDEIKEGIQYVFQTRNPLTLVISGSGHCALEAALVNVLEPGDSFLVGANGIWGQRAVDIGERIGARVHPMTKDPGGHYTLQEVEEGLAQHKPVLLFLTHGESSTGVLQPLDGFGELCHRYKCLLLVDSVASLGGTPLYMDRQGIDILYSGSQKALNAPPGTSLISFSDKAKKKMYSRKTKPFSFYLDTKWLANFWGCDDQPRMYHHTIPVISLYSLRESLALIAEQGLENSWRQHREAAAYLHGRLQALGLQLFVKDPALRLPTVTTVAVPAGYDWRDIVSYVMDHFDIEIMGGLGPSTGKVLRIGLLGCNATRENVDRVTEALRAALQHCPKKKL | 2 |
| AGT LM p.S81A (enzyme, human, UniProt P21549 1-392, looked up, Alanine:glyoxylate aminotransferase (AGT), human, minor allele (LM) background with S81A; site-directed mutant of the pCOLDII construct of m2; also called set A81) MASHKLLVTPLKALLKPLSIPNQLLLGPGPSNLPPRIMAAGGLQMIGSMSKDMYQIMDEIKEGIQYVFQTRNPLTLVISGAGHCALEAALVNVLEPGDSFLVGANGIWGQRAVDIGERIGARVHPMTKDPGGHYTLQEVEEGLAQHKPVLLFLTHGESSTGVLQPLDGFGELCHRYKCLLLVDSVASLGGTPLYMDRQGIDILYSGSQKALNAPPGTSLISFSDKAKKKMYSRKTKPFSFYLDIKWLANFWGCDDQPRMYHHTIPVISLYSLRESLALIAEQGLENSWRQHREAAAYLHGRLQALGLQLFVKDPALRLPTVTTVAVPAGYDWRDIVSYVMDHFDIEIMGGLGPSTGKVLRIGLLGCNATRENVDRVTEALRAALQHCPKKKL | 2 |
| AGT LM-p.I244T p.S81A (enzyme, human, UniProt P21549 1-392, looked up, Alanine:glyoxylate aminotransferase (AGT), human, LM-p.I244T background with S81A; site-directed mutant of the pCOLDII construct of m4; also called set A81) MASHKLLVTPLKALLKPLSIPNQLLLGPGPSNLPPRIMAAGGLQMIGSMSKDMYQIMDEIKEGIQYVFQTRNPLTLVISGAGHCALEAALVNVLEPGDSFLVGANGIWGQRAVDIGERIGARVHPMTKDPGGHYTLQEVEEGLAQHKPVLLFLTHGESSTGVLQPLDGFGELCHRYKCLLLVDSVASLGGTPLYMDRQGIDILYSGSQKALNAPPGTSLISFSDKAKKKMYSRKTKPFSFYLDTKWLANFWGCDDQPRMYHHTIPVISLYSLRESLALIAEQGLENSWRQHREAAAYLHGRLQALGLQLFVKDPALRLPTVTTVAVPAGYDWRDIVSYVMDHFDIEIMGGLGPSTGKVLRIGLLGCNATRENVDRVTEALRAALQHCPKKKL | 2 |
| AGT LM-p.G170R p.S81A (enzyme, human, UniProt P21549 1-392, looked up, Alanine:glyoxylate aminotransferase (AGT), human, LM-p.G170R background with S81A; site-directed mutant of the pCOLDII construct of m3; also called set A81) MASHKLLVTPLKALLKPLSIPNQLLLGPGPSNLPPRIMAAGGLQMIGSMSKDMYQIMDEIKEGIQYVFQTRNPLTLVISGAGHCALEAALVNVLEPGDSFLVGANGIWGQRAVDIGERIGARVHPMTKDPGGHYTLQEVEEGLAQHKPVLLFLTHGESSTGVLQPLDGFRELCHRYKCLLLVDSVASLGGTPLYMDRQGIDILYSGSQKALNAPPGTSLISFSDKAKKKMYSRKTKPFSFYLDIKWLANFWGCDDQPRMYHHTIPVISLYSLRESLALIAEQGLENSWRQHREAAAYLHGRLQALGLQLFVKDPALRLPTVTTVAVPAGYDWRDIVSYVMDHFDIEIMGGLGPSTGKVLRIGLLGCNATRENVDRVTEALRAALQHCPKKKL | 2 |
| AGT LM p.S81D (enzyme, human, UniProt P21549 1-392, looked up, Alanine:glyoxylate aminotransferase (AGT), human, minor allele (LM) background with the phosphomimetic S81D; site-directed mutant of the pCOLDII construct of m2; also called set D81) MASHKLLVTPLKALLKPLSIPNQLLLGPGPSNLPPRIMAAGGLQMIGSMSKDMYQIMDEIKEGIQYVFQTRNPLTLVISGDGHCALEAALVNVLEPGDSFLVGANGIWGQRAVDIGERIGARVHPMTKDPGGHYTLQEVEEGLAQHKPVLLFLTHGESSTGVLQPLDGFGELCHRYKCLLLVDSVASLGGTPLYMDRQGIDILYSGSQKALNAPPGTSLISFSDKAKKKMYSRKTKPFSFYLDIKWLANFWGCDDQPRMYHHTIPVISLYSLRESLALIAEQGLENSWRQHREAAAYLHGRLQALGLQLFVKDPALRLPTVTTVAVPAGYDWRDIVSYVMDHFDIEIMGGLGPSTGKVLRIGLLGCNATRENVDRVTEALRAALQHCPKKKL | 2 |
| AGT WT p.S81A (enzyme, human, UniProt P21549 1-392, looked up, Alanine:glyoxylate aminotransferase (AGT), human, wild-type background with S81A; site-directed mutant of the pCOLDII construct of m1; also called set A81) MASHKLLVTPPKALLKPLSIPNQLLLGPGPSNLPPRIMAAGGLQMIGSMSKDMYQIMDEIKEGIQYVFQTRNPLTLVISGAGHCALEAALVNVLEPGDSFLVGANGIWGQRAVDIGERIGARVHPMTKDPGGHYTLQEVEEGLAQHKPVLLFLTHGESSTGVLQPLDGFGELCHRYKCLLLVDSVASLGGTPLYMDRQGIDILYSGSQKALNAPPGTSLISFSDKAKKKMYSRKTKPFSFYLDIKWLANFWGCDDQPRMYHHTIPVISLYSLRESLALIAEQGLENSWRQHREAAAYLHGRLQALGLQLFVKDPALRLPTVTTVAVPAGYDWRDIVSYVIDHFDIEIMGGLGPSTGKVLRIGLLGCNATRENVDRVTEALRAALQHCPKKKL | 2 |
| AGT LM-p.G170R (enzyme, human, UniProt P21549 1-392, looked up, Alanine:glyoxylate aminotransferase (AGT), human, minor allele (LM) with the PH1-associated variant p.G170R; also called set S81) MASHKLLVTPLKALLKPLSIPNQLLLGPGPSNLPPRIMAAGGLQMIGSMSKDMYQIMDEIKEGIQYVFQTRNPLTLVISGSGHCALEAALVNVLEPGDSFLVGANGIWGQRAVDIGERIGARVHPMTKDPGGHYTLQEVEEGLAQHKPVLLFLTHGESSTGVLQPLDGFRELCHRYKCLLLVDSVASLGGTPLYMDRQGIDILYSGSQKALNAPPGTSLISFSDKAKKKMYSRKTKPFSFYLDIKWLANFWGCDDQPRMYHHTIPVISLYSLRESLALIAEQGLENSWRQHREAAAYLHGRLQALGLQLFVKDPALRLPTVTTVAVPAGYDWRDIVSYVMDHFDIEIMGGLGPSTGKVLRIGLLGCNATRENVDRVTEALRAALQHCPKKKL | 2 |
| AGT WT p.S81D (enzyme, human, UniProt P21549 1-392, looked up, Alanine:glyoxylate aminotransferase (AGT), human, wild-type background with the phosphomimetic S81D; site-directed mutant of the pCOLDII construct of m1; also called set D81) MASHKLLVTPPKALLKPLSIPNQLLLGPGPSNLPPRIMAAGGLQMIGSMSKDMYQIMDEIKEGIQYVFQTRNPLTLVISGDGHCALEAALVNVLEPGDSFLVGANGIWGQRAVDIGERIGARVHPMTKDPGGHYTLQEVEEGLAQHKPVLLFLTHGESSTGVLQPLDGFGELCHRYKCLLLVDSVASLGGTPLYMDRQGIDILYSGSQKALNAPPGTSLISFSDKAKKKMYSRKTKPFSFYLDIKWLANFWGCDDQPRMYHHTIPVISLYSLRESLALIAEQGLENSWRQHREAAAYLHGRLQALGLQLFVKDPALRLPTVTTVAVPAGYDWRDIVSYVIDHFDIEIMGGLGPSTGKVLRIGLLGCNATRENVDRVTEALRAALQHCPKKKL | 2 |
| AGT LM-p.G170R p.S81D (enzyme, human, UniProt P21549 1-392, looked up, Alanine:glyoxylate aminotransferase (AGT), human, LM-p.G170R background with the phosphomimetic S81D; site-directed mutant of the pCOLDII construct of m3; also called set D81) MASHKLLVTPLKALLKPLSIPNQLLLGPGPSNLPPRIMAAGGLQMIGSMSKDMYQIMDEIKEGIQYVFQTRNPLTLVISGDGHCALEAALVNVLEPGDSFLVGANGIWGQRAVDIGERIGARVHPMTKDPGGHYTLQEVEEGLAQHKPVLLFLTHGESSTGVLQPLDGFRELCHRYKCLLLVDSVASLGGTPLYMDRQGIDILYSGSQKALNAPPGTSLISFSDKAKKKMYSRKTKPFSFYLDIKWLANFWGCDDQPRMYHHTIPVISLYSLRESLALIAEQGLENSWRQHREAAAYLHGRLQALGLQLFVKDPALRLPTVTTVAVPAGYDWRDIVSYVMDHFDIEIMGGLGPSTGKVLRIGLLGCNATRENVDRVTEALRAALQHCPKKKL | 2 |

Target: T1, AGT (alanine:glyoxylate aminotransferase 1), AGT WT
Assay: absorption and near-UV/visible CD after L-alanine; 30-kDa filtration for released PMP
Type: biochemical
Conditions: 20 uM holo-AGT, 200 mM L-alanine, 25 C, HEPES 20 mM, NaCl 200 mM, pH 7.4

| Molecule | absorption and near-UV/visible CD after L-alanine; 30-kDa filtration for release |
| --- | --- |
| Cc1ncc(COP(=O)(O)O)c(CN)c1O [PMP] | the CD signal associated with PMP formation, clearly present in S81 and A81 sets |
